Laboratory results from article PMC1238745 (2005).

How the values were obtained:
Assay in all cases: NMR
Bax BH3 peptide BH3 = molecular target: T1, Bax BH3 peptide BH3 (Homo sapiens, UniProt Q07812)
T1 chain: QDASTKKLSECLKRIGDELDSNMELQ

Bak BH3 peptide BH3 = molecular target: T2, Bak BH3 peptide BH3 (Homo sapiens, UniProt Q16611)
T2 chain: GQVGRQLAIIGDDINR

Bad BH3 peptide BH3 = molecular target: T3, Bad BH3 peptide BH3 (Homo sapiens, UniProt Q92934)
T3 chain: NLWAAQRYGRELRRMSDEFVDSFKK

B1: v-Bcl-2 (protein)
chain: MSHKKSGTYWATLITAFLKTVSKVEELDCVDSAVLVDVSKIITLTQEFRRHYDSVYRADYGPALKNWKRDLSKLFTSLFVDVINSGRIVGFFDVGRYVCEEVLCPGSWTEDHELLNDCMTHFFIENNLMNHFPLEDIFLAQRKFQTTGFTFLLHALAKVLPRIYSGNVIYV
Kd (Bax BH3 peptide BH3): < 5 µM
Kd (Bak BH3 peptide BH3): < 5 µM
Kd (Bad BH3 peptide BH3): > 300 µM
